Measured values published in US20200123499A1 (MIT, published 2020).

Target: T1, DPY-22 PQ-rich domain (C. elegans, UniProt Q20497 2142-3498, limits assumed)
T1 construct: domain: PQ-rich domain; Expressed in yeast from a Clontech two-hybrid bait or prey plasmid, so fused to a Gal4 BD or AD; also called C-terminal PQ-rich domain of DPY-22; MED12/DPY22
T1 sequence (looked up): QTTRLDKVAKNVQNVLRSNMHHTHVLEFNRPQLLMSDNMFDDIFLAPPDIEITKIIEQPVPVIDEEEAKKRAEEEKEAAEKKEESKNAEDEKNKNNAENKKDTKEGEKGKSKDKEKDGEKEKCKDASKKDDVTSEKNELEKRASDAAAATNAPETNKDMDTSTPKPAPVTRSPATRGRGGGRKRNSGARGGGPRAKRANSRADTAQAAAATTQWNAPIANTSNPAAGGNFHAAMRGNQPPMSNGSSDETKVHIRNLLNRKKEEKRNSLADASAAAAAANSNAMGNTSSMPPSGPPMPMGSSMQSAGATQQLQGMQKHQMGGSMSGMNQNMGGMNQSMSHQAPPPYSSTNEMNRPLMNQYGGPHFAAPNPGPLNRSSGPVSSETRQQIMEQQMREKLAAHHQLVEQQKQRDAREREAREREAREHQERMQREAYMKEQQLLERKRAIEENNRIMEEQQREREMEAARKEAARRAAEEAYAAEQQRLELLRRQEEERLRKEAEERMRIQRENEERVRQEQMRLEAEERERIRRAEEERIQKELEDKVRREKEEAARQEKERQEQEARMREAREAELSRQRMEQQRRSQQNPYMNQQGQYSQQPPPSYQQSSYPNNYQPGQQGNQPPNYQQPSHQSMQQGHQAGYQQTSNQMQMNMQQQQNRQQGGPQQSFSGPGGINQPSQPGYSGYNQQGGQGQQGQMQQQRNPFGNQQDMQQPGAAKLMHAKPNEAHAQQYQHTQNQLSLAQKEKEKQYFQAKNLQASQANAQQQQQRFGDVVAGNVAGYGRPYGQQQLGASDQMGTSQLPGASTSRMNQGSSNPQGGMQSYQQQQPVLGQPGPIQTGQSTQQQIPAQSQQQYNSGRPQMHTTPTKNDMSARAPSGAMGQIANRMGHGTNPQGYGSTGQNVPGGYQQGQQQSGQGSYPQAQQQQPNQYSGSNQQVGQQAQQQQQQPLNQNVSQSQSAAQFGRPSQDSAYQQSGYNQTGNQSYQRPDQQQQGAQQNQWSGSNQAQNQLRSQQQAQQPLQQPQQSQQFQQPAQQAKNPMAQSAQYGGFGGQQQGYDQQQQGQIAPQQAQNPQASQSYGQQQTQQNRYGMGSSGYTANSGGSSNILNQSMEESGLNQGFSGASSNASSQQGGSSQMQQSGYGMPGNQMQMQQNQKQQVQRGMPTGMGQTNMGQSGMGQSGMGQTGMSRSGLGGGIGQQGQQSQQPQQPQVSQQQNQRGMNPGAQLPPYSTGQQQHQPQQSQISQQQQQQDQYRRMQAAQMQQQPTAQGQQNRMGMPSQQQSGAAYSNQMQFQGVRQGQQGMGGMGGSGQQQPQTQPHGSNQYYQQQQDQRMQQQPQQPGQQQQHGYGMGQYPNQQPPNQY
Experiment: yeast two-hybrid
Description: The yeast two-hybrid assay was performed following the manufacturer's protocol (Clontech). Briefly, fresh Yeast Gold colonies (<1 week old) were cultured in YPD liquid medium at 30° C. to the O.D.600 of 0.5, harvested, washed, and resuspended in 1.1×TE/LiAc. 100 ng of bait and prey plasmids were mixed with […] of denatured salmon sperm carrier DNA and were transformed into competent yeast cells in the presence of 1×PEG/LiAc. The cell mix was then plated on both -Leu-Trp and -Leu-Trp-His-Ade dropout plates and was allowed to grow and 30° C. for 2-3 days. Single colonies that grew on the double and quadruple dropout plates were resuspended in H2O and respotted to fresh dropout plates, which were grown at 30° C. for 2 days. Images of the respotted plates were captured using a Canon Powershot A590 digital camera (Canon) and processed by Photoshop CS4 software (Adobe).
Two let-19 alleles contain missense mutations, and all five of the dpy-22 alleles contain nonsense mutations that truncate the C-terminal PQ-rich domain (FIG. 3C). In vertebrates, Med12 interacts with transcription factors through the PQ-rich domain to promote gene expression and tissue development (37-41). To determine if Mediator might specifically promote I4 neurogenesis by interacting with bHLH proneural factors, we performed a yeast two-hybrid assay. […]

binding result: no binding
B1: HLH-3 (other)
chain: MTASTSSTPSTSTKIPSSSKSSVTKQTKQKRNERERKRVDQVNQGFVLLQERVPKAAGNKAKLSKVETLREAARYIQELQKQLGMSSTSFHNSMPADFPTPEQSPVYPQSVCSMMAQTPSPSYTSPYYPPPQMMSSNQHDMSSHYYQESSSSSASTSGDHHSFYSHTETY
notes: Yeast two-hybrid fusion (Gal4 BD or AD); also called ASCL1/HLH3; C. elegans homolog of Ascl1/Mash1
